Data from the RNAGym collection of RNA variant scans (doi:10.7554/elife.80360).

B1: Hairpin Ribozyme (parent)
chain: GUCCUCUUUCACGUGCGCGUGAAAGAGAGAAGUGAACCAGAGAAACACACGUUGUGGUAUAUUACCUGGUA

Variants of: B1
Assay: self-cleavage, relative activity (ratio to wild type); higher = more cleavage; co-transcriptional

Variant	self-cleavage
U14A A39C	0.515
U14A A39U	0.408
U14C A28G	0.65
G13U C16U	0.818
G13C U63A	0.173
U14A A71G	1.08
G13C A61U	0.161
G13U C65A	0.845
G13U G15A	0.491
G13U G15C	0.608
U14C A45C	0.206
U14C A45G	0.0672
G13U U67C	0.211
C12G U55C	0.216
C12G U55G	0.322
U14A C65U	0.292
U14A C65G	0.323
U14C A47G	0.118
G13A G29U	0.116
G13U U33G	0.0972
G13U U33C	0.102
C12U A39G	0.297
U14A G29A	0.227
U14A U63C	0.212

Variant	self-cleavage
C12U G19A	1.02
C12U C37A	0.282
U14A G54U	0.471
U14A G54A	0.581
G13A G40C	0.152
G13U U53C	0.477
U14C C16A	0.922
U14C C16G	0.821
C12G U67G	0.215
C12G U67A	0.202
G13A A30C	0.0871
G13A A30U	0.113
C12G G40C	0.117
C12G G40U	0.113
U14A G19C	0.819
U14A G19U	0.736
U14C C38U	0.493
U14A A28G	1.2
U14C G19A	0.612
C12U C65A	0.88
C12U C65G	0.2
C12U C65U	0.348
U14A U58G	0.505
U14A U58C	0.78

Variant	self-cleavage
U14A U58A	0.792
U14C A61U	0.293
U14C G29U	0.198
G13U G51A	0.745
G13A G57C	0.164
G13A G57A	0.175
C12U U63A	0.249
G13C G51C	0.681
G13C U14G	0.688
G13C U14A	0.688
G13U C18U	0.967
G13U C18A	0.915
U14A A64U	0.171
U14A A64G	0.589
U14A A64C	0.254
C12U G25A	0.482
G13A U62C	0.242
C12U C18U	0.978
C12U C18G	0.832
U14A G68C	0.25
C12U G21A	0.748
G13C G34A	0.915
G13C A39G	0.186
G13C A39C	0.59

Variant	self-cleavage
C12U A24C	0.721
C12U A24G	0.892
G13A G51C	0.68
G13U G54U	0.588
U14C G40A	0.326
G13C A59C	0.11
U14A U62A	0.0586
G13A A59C	0.196
G13A A59U	0.241
C12U C50U	0.431
C12U C50A	0.314
C12U A71G	0.797
C12U A35U	0.743
U14A A41C	1.34
U14A A41U	1.04
G13U G17C	0.494
G13U G29U	0.147
G13A A71U	0.746
C12U G56A	0.177
C12G G69C	0.355
G13A A41C	1.04
G13U U55C	0.254
G13U U55A	0.263
G13C G29A	0.106

Variant	self-cleavage
U14A G25U	0.521
U14A G25A	0.56
G13A G56U	0.137
G13C G54A	0.368
G13C G54C	0.161
G13A U67C	0.27
G13A U67A	0.27
G13C A26G	0.492
U14A U67C	0.247
U14A U67G	0.277
U14A U67A	0.188
U14A C18U	0.924
C12U A36C	0.674
G13C U20G	0.531
G13C U20C	0.785
G13C U20A	0.492
G13C A36U	0.4
G13C A36G	0.816
C12U U20C	0.894
C12U U20A	0.695
G13C G27U	0.19
U14C C18G	0.957
G13A G42A	0.194
C12U C38A	0.143

Variant	self-cleavage
C12U G68U	0.27
C12U G68A	0.259
C12U A61C	0.24
G13A U60C	1.25
C12G U14C	0.61
C12U A44C	0.184
C12G G54U	0.537
C12G G54C	0.246
C12G U62G	0.21
C12U U55C	0.218
C12U U55G	0.181
G13A U55A	0.333
C12U A64U	0.241
C12U A64G	0.564
G13A G69A	0.368
G13A G69U	0.24
G13U U62C	0.291
G13U U62G	0.102
U14A C38G	0.0908
G13C G15U	0.695
G13C C46U	0.218
G13C C46A	0.137
U14A A22C	0.829
G13C C16U	0.573

Variant	self-cleavage
U14A A24C	0.703
U14A A26U	0.503
G13C G32C	0.123
G13A G15A	0.839
C12G U63C	0.296
U14A G42C	0.281
U14A G42U	0.308
U14A U70A	0.863
C12U U33A	0.205
C12U U33G	0.207
G13A C50A	0.284
G13A U52G	0.5
G13A U52A	1.01
G13A U52C	0.625
U14C A23U	1.09
U14C G34U	1.54
U14C G34A	0.988
C12U U60A	0.766
C12U G32U	0.082
G13C U33G	0.207
G13C U33A	0.0736
G13U G19C	0.686
U14A A43C	0.15
U14C G17C	0.582

Variant	self-cleavage
G13A A31G	0.515
G13A A31C	0.11
C12U A23G	0.965
C12U A23U	0.807
C12U G17U	0.69
C12U A28C	0.437
C12U A28U	0.583
C12U A28G	1.19
G13U A35U	0.83
G13A U58G	0.594
G13A U58A	0.574
U14A U52A	1.03
G13U U52C	0.655
G13U G68C	0.19
U14C A41C	1.18
U14C A41G	0.678
G13C A22U	0.528
U14A A35G	0.956
U14A A35C	0.998
C12U G54A	0.587
C12G U60A	0.748
C12G G57A	0.152
G13C G19U	0.752
G13A U63A	0.194

Variant	self-cleavage
G13U G27C	0.19
C12G G56C	0.154
C12G G32A	0.143
C12G U33A	0.0646
U14A G15A	1
U14A G15U	1.17
U14A G15C	1.06
G13U A49C	0.117
G13A G25A	0.484
U14A G56U	0.205
U14A G56A	0.0617
U14A G56C	0.168
G13A U14C	0.855
G13A U14G	0.538
G13A U14A	0.99
G13U A31G	0.499
G13U A31U	0.109
G13A C16U	1.03
G13A C16G	0.593
G13A C16A	0.82
U14C A30G	0.116
U14C A30U	0.148
C12G U20G	0.798
G13C A24C	0.466

Variant	self-cleavage
U14A A47U	0.143
U14A A47C	0.482
G13U A36G	0.65
G13U A71C	1.22
G13U A71G	0.936
U14A C37G	0.295
U14A C37U	0.481
G13C G69C	0.199
G13C G69A	0.214
U14C C50U	0.265
G13A C46A	0.124
G13A C46G	0.0618
G13A A35C	0.739
G13A C65A	0.743
U14C G25U	0.762
G13C G40U	0.158
G13U A44U	0.147
U14C G21C	0.883
G13U A45G	0.0663
G13A A36U	0.491
U14A G51U	0.925
G13U A23G	0.675
G13C U53A	0.747
C12G U70C	0.699

Variant	self-cleavage
G13C U67C	0.126
G13C U67G	0.281
U14A C66A	0.0937
C12U U53G	0.677
C12U U53A	0.974
C12U A31U	0.112
U14A A44U	0.118
G13A U53A	0.856
G13U A39C	0.498
G13U A39U	0.257
U14C A64G	0.568
U14A A59C	0.179
U14A C46G	0.108
U14A C46A	0.232
G13C A71G	0.823
U14A C48U	0.123
C12U U14C	1.05
C12U A30G	0.173
U14A A49U	0.13
G13A A43G	0.0659
G13A C18U	1.1
G13A C18G	0.761
G13U G69U	0.246
G13C G68C	0.151

Variant	self-cleavage
G13C G68A	0.219
G13A G21U	0.742
U14C A59C	0.0922
G13A A23G	0.767
U14A G17C	0.472
C12U A59U	0.182
C12U A59G	0.116
C12U C48A	0.107
G13C A30G	0.114
C12U G42A	0.149
C12U G42U	0.355
C12G G42A	0.276
G13U A26G	0.675
G13C A43C	0.0516
G13C A43G	0.144
G13C A43U	0.0989
G13U A28G	0.725
G13U A28U	0.546
G13U C66A	0.176
G13U C66G	0.11
U14C A44U	0.0783
U14C A44C	0.241
G13C C18A	0.932
U14C A35C	0.687

Variant	self-cleavage
U14A A36G	0.864
G13U G32C	0.232
G13U A41C	0.91
U14A U55G	0.179
G13C C50G	0.278
G13C C66U	0.431
G13C C66A	0.0627
G13C C66G	0.129
C12U U58C	1
C12U A26C	0.481
C12U A26U	0.591
C12U A26G	0.796
U14C G27C	0.078
C12U U62G	0.235
G13C A44C	0.281
G13C A44U	0.137
G13U A30G	0.191
G13C C48G	0.102
U14A U20A	0.67
G13C G17U	0.492
C12U G15C	0.897
G13C A64C	0.149
G13A A28U	0.495
G13A A28C	0.258

Variant	self-cleavage
U14C C66A	0.223
C12G U58C	0.762
C12G U58G	0.502
U14A A23G	0.814
U14A A23C	0.789
G13C U58A	0.35
G13C U58C	0.869
G13C G21A	0.61
G13C U60A	0.579
C12G U52A	0.922
C12U A41U	0.928
C12U G27U	0.199
C12U G69C	0.367
C12U G69U	0.153
C12U G69A	0.406
G13C U55A	0.196
G13C G42A	0.208
G13U A64C	0.267
G13U A64U	0.147
G13U A64G	0.533
G13C C65A	0.726
G13C C65G	0.256
